Reference: the supplement of paper PMC9112550, “Optimization of the antimicrobial peptide Bac7 by deep mutational scanning” (BMC Biology, 2022)

Tested on: Escherichia coli TOP10
Experiment: shrunken log2 fold change of peptide-encoding DNA abundance (4.5 h post-induction vs induction); higher = less antimicrobial activity (less host growth inhibition)
Details: time post-induction: 4.5 h; library: site-saturation at positions 5, 18, 19, 20
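Further: peptides expressed intracellularly from a pBAD plasmid library in pooled LB shake-flask culture, induced with 0.3% L-arabinose, DNA abundance read by NGS, three biological replicates, DESeq2 with apeglm shrinkage.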

| Sequence | shrunken log2 fold change |
| --- | --- |
| RRIRWRPPRLPRPRPRPAKFPRP | 0.0295 |
| RRIRWRPPRLPRPRPRPAKTPRP | 0.0165 |
| RRIRWRPPRLPRPRPRPALAPRP | 0.555 |
| RRIRWRPPRLPRPRPRPALLPRP | 0.584 |
| RRIRWRPPRLPRPRPRPAMGPRP | 0.161 |
| RRIRWRPPRLPRPRPRPAMIPRP | -0.0987 |
| RRIRWRPPRLPRPRPRPANMPRP | -0.0899 |
| RRIRWRPPRLPRPRPRPANPPRP | 0.165 |
| RRIRWRPPRLPRPRPRPANVPRP | -0.624 |
| RRIRWRPPRLPRPRPRPAPPPRP | 0.579 |
| RRIRWRPPRLPRPRPRPAQEPRP | 0.149 |
| RRIRWRPPRLPRPRPRPAQPPRP | 0.236 |
| RRIRWRPPRLPRPRPRPARGPRP | 0.687 |
| RRIRWRPPRLPRPRPRPARHPRP | 0.31 |
| RRIRWRPPRLPRPRPRPARMPRP | 0.362 |
| RRIRWRPPRLPRPRPRPARRPRP | 0.495 |
| RRIRWRPPRLPRPRPRPASGPRP | 0.461 |
| RRIRWRPPRLPRPRPRPAVEPRP | 0.497 |
| RRIRWRPPRLPRPRPRPAVIPRP | 0.0266 |
| RRIRWRPPRLPRPRPRPAWYPRP | 0.0415 |
| RRIRWRPPRLPRPRPRPAYGPRP | -0.213 |
| RRIRWRPPRLPRPRPRPAYIPRP | -0.0757 |
| RRIRWRPPRLPRPRPRPAYPPRP | 0.00826 |
| RRIRWRPPRLPRPRPRPCALPRP | -0.321 |
| RRIRWRPPRLPRPRPRPCCNPRP | -0.0508 |

| Sequence | shrunken log2 fold change |
| --- | --- |
| RRIRWRPPRLPRPRPRPCDTPRP | -0.165 |
| RRIRWRPPRLPRPRPRPCDYPRP | -0.0182 |
| RRIRWRPPRLPRPRPRPCFMPRP | -0.0873 |
| RRIRWRPPRLPRPRPRPCGNPRP | 0.0696 |
| RRIRWRPPRLPRPRPRPCIEPRP | -0.0674 |
| RRIRWRPPRLPRPRPRPCKYPRP | -0.509 |
| RRIRWRPPRLPRPRPRPCLDPRP | -0.0586 |
| RRIRWRPPRLPRPRPRPCMGPRP | -0.0956 |
| RRIRWRPPRLPRPRPRPCPAPRP | -0.0319 |
| RRIRWRPPRLPRPRPRPCPRPRP | -0.0457 |
| RRIRWRPPRLPRPRPRPCQHPRP | -0.116 |
| RRIRWRPPRLPRPRPRPCSCPRP | 0.0968 |
| RRIRWRPPRLPRPRPRPCTDPRP | 0.0992 |
| RRIRWRPPRLPRPRPRPCTLPRP | -0.842 |
| RRIRWRPPRLPRPRPRPCTMPRP | -0.00405 |
| RRIRWRPPRLPRPRPRPCVAPRP | 0.321 |
| RRIRWRPPRLPRPRPRPCVHPRP | 0.0249 |
| RRIRWRPPRLPRPRPRPCVWPRP | 0.738 |
| RRIRWRPPRLPRPRPRPCYEPRP | -0.136 |
| RRIRWRPPRLPRPRPRPCYKPRP | -0.00556 |
| RRIRWRPPRLPRPRPRPCYNPRP | -0.24 |
| RRIRWRPPRLPRPRPRPCYWPRP | -0.201 |
| RRIRWRPPRLPRPRPRPDAHPRP | 0.0254 |
| RRIRWRPPRLPRPRPRPDANPRP | 0.0696 |
| RRIRWRPPRLPRPRPRPDCTPRP | 0.372 |

| Sequence | shrunken log2 fold change |
| --- | --- |
| RRIRWRPPRLPRPRPRPDCYPRP | 0.148 |
| RRIRWRPPRLPRPRPRPDDIPRP | -0.163 |
| RRIRWRPPRLPRPRPRPDDMPRP | -0.147 |
| RRIRWRPPRLPRPRPRPDDPPRP | -0.0101 |
| RRIRWRPPRLPRPRPRPDESPRP | -0.0029 |
| RRIRWRPPRLPRPRPRPDEWPRP | 0.253 |
| RRIRWRPPRLPRPRPRPDFPPRP | -0.0386 |
| RRIRWRPPRLPRPRPRPDFRPRP | 0.169 |
| RRIRWRPPRLPRPRPRPDMPPRP | 0.325 |
| RRIRWRPPRLPRPRPRPDNFPRP | -0.0334 |
| RRIRWRPPRLPRPRPRPDNRPRP | -0.213 |
| RRIRWRPPRLPRPRPRPDPGPRP | -0.041 |
| RRIRWRPPRLPRPRPRPDPKPRP | -0.0134 |
| RRIRWRPPRLPRPRPRPDQPPRP | 0.234 |
| RRIRWRPPRLPRPRPRPDRQPRP | -0.018 |
| RRIRWRPPRLPRPRPRPDSEPRP | 1.48 |
| RRIRWRPPRLPRPRPRPDSMPRP | -0.0126 |
| RRIRWRPPRLPRPRPRPDTNPRP | -0.144 |
| RRIRWRPPRLPRPRPRPDVDPRP | -0.0413 |
| RRIRWRPPRLPRPRPRPDWCPRP | 0.112 |
| RRIRWRPPRLPRPRPRPDWGPRP | -0.0819 |
| RRIRWRPPRLPRPRPRPEAAPRP | 1.76 |
| RRIRWRPPRLPRPRPRPEAFPRP | 0.488 |
| RRIRWRPPRLPRPRPRPECWPRP | 1.29 |
| RRIRWRPPRLPRPRPRPECYPRP | -0.0149 |

| Sequence | shrunken log2 fold change |
| --- | --- |
| RRIRWRPPRLPRPRPRPEFWPRP | 0.6 |
| RRIRWRPPRLPRPRPRPEHNPRP | 0.147 |
| RRIRWRPPRLPRPRPRPEHYPRP | -1.14 |
| RRIRWRPPRLPRPRPRPEIAPRP | 0.355 |
| RRIRWRPPRLPRPRPRPEKGPRP | 0.0282 |
| RRIRWRPPRLPRPRPRPEMCPRP | -0.0695 |
| RRIRWRPPRLPRPRPRPEPEPRP | 0.838 |
| RRIRWRPPRLPRPRPRPEPLPRP | 0.417 |
| RRIRWRPPRLPRPRPRPERFPRP | -0.0212 |
| RRIRWRPPRLPRPRPRPERRPRP | 0.327 |
| RRIRWRPPRLPRPRPRPERVPRP | 0.447 |
| RRIRWRPPRLPRPRPRPESRPRP | 0.323 |
| RRIRWRPPRLPRPRPRPESTPRP | 1.17 |
| RRIRWRPPRLPRPRPRPEVNPRP | 0.321 |
| RRIRWRPPRLPRPRPRPEWDPRP | 1.22 |
| RRIRWRPPRLPRPRPRPEWGPRP | 0.47 |
| RRIRWRPPRLPRPRPRPEWLPRP | 0.803 |
| RRIRWRPPRLPRPRPRPEYAPRP | 0.467 |
| RRIRWRPPRLPRPRPRPEYTPRP | 0.166 |
| RRIRWRPPRLPRPRPRPFALPRP | -0.129 |
| RRIRWRPPRLPRPRPRPFDFPRP | -0.159 |
| RRIRWRPPRLPRPRPRPFEKPRP | 0.0683 |
| RRIRWRPPRLPRPRPRPFEVPRP | 0.0389 |
| RRIRWRPPRLPRPRPRPFGVPRP | 0.227 |
| RRIRWRPPRLPRPRPRPFKDPRP | -0.252 |

| Sequence | shrunken log2 fold change |
| --- | --- |
| RRIRWRPPRLPRPRPRPFKKPRP | 0.149 |
| RRIRWRPPRLPRPRPRPFLGPRP | -0.552 |
| RRIRWRPPRLPRPRPRPFLNPRP | -0.425 |
| RRIRWRPPRLPRPRPRPFMRPRP | 0.276 |
| RRIRWRPPRLPRPRPRPFPRPRP | 0.111 |
| RRIRWRPPRLPRPRPRPFPYPRP | -0.44 |
| RRIRWRPPRLPRPRPRPFQGPRP | -0.249 |
| RRIRWRPPRLPRPRPRPFRIPRP | -0.5 |
| RRIRWRPPRLPRPRPRPFSAPRP | -0.133 |
| RRIRWRPPRLPRPRPRPFSDPRP | -0.0111 |
| RRIRWRPPRLPRPRPRPFWYPRP | -0.214 |
| RRIRWRPPRLPRPRPRPFYFPRP | 0.0389 |
| RRIRWRPPRLPRPRPRPFYGPRP | -0.0562 |
| RRIRWRPPRLPRPRPRPFYNPRP | -0.242 |
| RRIRWRPPRLPRPRPRPGCMPRP | 0.464 |
| RRIRWRPPRLPRPRPRPGDCPRP | 0.00839 |
| RRIRWRPPRLPRPRPRPGEEPRP | 0.387 |
| RRIRWRPPRLPRPRPRPGELPRP | 0.532 |
| RRIRWRPPRLPRPRPRPGESPRP | 0.159 |
| RRIRWRPPRLPRPRPRPGEWPRP | 0.162 |
| RRIRWRPPRLPRPRPRPGGFPRP | 0.664 |
| RRIRWRPPRLPRPRPRPGHCPRP | -0.101 |
| RRIRWRPPRLPRPRPRPGKHPRP | 0.0375 |
| RRIRWRPPRLPRPRPRPGKIPRP | 0.159 |
| RRIRWRPPRLPRPRPRPGLHPRP | 0.237 |

| Sequence | shrunken log2 fold change |
| --- | --- |
| RRIRWRPPRLPRPRPRPGLMPRP | 0.444 |
| RRIRWRPPRLPRPRPRPGMAPRP | 0.627 |
| RRIRWRPPRLPRPRPRPGNEPRP | 0.403 |
| RRIRWRPPRLPRPRPRPGNMPRP | -0.11 |
| RRIRWRPPRLPRPRPRPGNTPRP | -0.348 |
| RRIRWRPPRLPRPRPRPGPGPRP | 0.899 |
| RRIRWRPPRLPRPRPRPGRFPRP | 0.152 |
| RRIRWRPPRLPRPRPRPGRYPRP | -0.137 |
| RRIRWRPPRLPRPRPRPGTMPRP | -0.153 |
| RRIRWRPPRLPRPRPRPGTRPRP | 0.377 |
| RRIRWRPPRLPRPRPRPGVYPRP | 0.221 |
| RRIRWRPPRLPRPRPRPGWAPRP | 0.845 |
| RRIRWRPPRLPRPRPRPGWLPRP | 0.375 |
| RRIRWRPPRLPRPRPRPGYEPRP | 0.00228 |
| RRIRWRPPRLPRPRPRPGYKPRP | -0.255 |
| RRIRWRPPRLPRPRPRPHAKPRP | 0.202 |
| RRIRWRPPRLPRPRPRPHDFPRP | -0.313 |
| RRIRWRPPRLPRPRPRPHDSPRP | -0.122 |
| RRIRWRPPRLPRPRPRPHFMPRP | -0.398 |
| RRIRWRPPRLPRPRPRPHFTPRP | -0.306 |
| RRIRWRPPRLPRPRPRPHGIPRP | 0.00741 |
| RRIRWRPPRLPRPRPRPHGRPRP | 0.0589 |
| RRIRWRPPRLPRPRPRPHGVPRP | 0.0746 |
| RRIRWRPPRLPRPRPRPHIGPRP | -0.079 |
| RRIRWRPPRLPRPRPRPHIQPRP | -0.749 |
